Here are results for ten molecules from patent US20050271651A1, “Inhibition of bright function as a treatment for excessive immunoglobulin production” (Oklahoma Medical Research Foundation, published 2005).

Positions count from the first letter of the chain named. In names and notes the source's numbering stands.

T1: mouse Bright, native (untagged) wild-type (mouse) (UniProt Q62431)
T1 sequence (looked up): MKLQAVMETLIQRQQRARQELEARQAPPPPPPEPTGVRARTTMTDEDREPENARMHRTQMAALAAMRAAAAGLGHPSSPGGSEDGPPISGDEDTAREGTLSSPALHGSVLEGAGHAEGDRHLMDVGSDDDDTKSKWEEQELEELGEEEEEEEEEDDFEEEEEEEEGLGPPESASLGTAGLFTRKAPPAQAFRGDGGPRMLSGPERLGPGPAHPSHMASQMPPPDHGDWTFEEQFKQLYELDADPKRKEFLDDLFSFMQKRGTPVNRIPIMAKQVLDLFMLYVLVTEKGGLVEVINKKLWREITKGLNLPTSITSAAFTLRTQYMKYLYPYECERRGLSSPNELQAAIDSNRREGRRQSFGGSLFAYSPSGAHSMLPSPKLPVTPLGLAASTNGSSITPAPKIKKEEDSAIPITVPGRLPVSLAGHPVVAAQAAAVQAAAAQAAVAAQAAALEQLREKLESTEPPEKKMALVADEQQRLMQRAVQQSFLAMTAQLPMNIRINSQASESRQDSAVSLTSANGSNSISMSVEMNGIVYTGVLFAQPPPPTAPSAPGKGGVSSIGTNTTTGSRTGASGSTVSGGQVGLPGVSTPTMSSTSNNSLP

T2: Bright (ARID3A/Dril1) (Homo sapiens, UniProt Q99856 SEQ:1-593)
T2 sequence: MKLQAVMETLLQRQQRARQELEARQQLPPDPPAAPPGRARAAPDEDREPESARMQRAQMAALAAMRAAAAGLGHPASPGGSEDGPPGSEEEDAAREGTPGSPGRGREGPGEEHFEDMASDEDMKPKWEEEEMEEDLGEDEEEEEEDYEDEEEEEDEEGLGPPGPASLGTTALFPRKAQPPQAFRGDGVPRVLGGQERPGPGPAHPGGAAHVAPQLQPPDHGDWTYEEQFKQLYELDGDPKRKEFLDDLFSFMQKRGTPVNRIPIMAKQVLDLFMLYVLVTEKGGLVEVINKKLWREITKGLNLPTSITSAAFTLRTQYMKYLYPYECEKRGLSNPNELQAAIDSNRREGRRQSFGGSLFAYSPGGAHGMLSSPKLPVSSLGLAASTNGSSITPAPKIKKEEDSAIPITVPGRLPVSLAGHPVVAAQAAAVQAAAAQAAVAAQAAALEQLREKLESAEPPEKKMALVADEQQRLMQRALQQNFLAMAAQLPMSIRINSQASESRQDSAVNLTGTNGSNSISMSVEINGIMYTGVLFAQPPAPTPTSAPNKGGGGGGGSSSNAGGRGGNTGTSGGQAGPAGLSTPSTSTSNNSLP

B1: mutated Bright site competitor (dsDNA)
DNA 1: TAAGTATAAATATGTACATGAGTACACCCTCCACTTATTTATCTTA
DNA 2: TAAGATAAATAAGTGGAGGGTGTACTCATGTACATATTTATACTTA
B2: mouse Bright, native (untagged) wild-type (other, UniProt Q62431 1-601, looked up)
chain: T1 sequence (looked up)
notes: range 1-601; Untagged protein, tested in three forms: expressed in CHO cells, in vitro translated, or endogenous in the mouse B cell lines BCg3R-1d and M12g3Ri; Found as a dimer in solution by size exclusion chromatography; also called native Bright; wild-type Bright
B3: mouse Bright REKLES mutant (REKLES at amino acids 455-460 changed to AEALEA), C-terminal myc-his tagged (other, UniProt Q62431 1-601, looked up)
chain: T1 sequence (looked up) with R455A, K457A, S460A
notes: range 1-601; not shown: C-terminal myc-his tag from vector pcDNA4/TO/myc-His B
B4: mouse Bright Y330A, C-terminal myc-his tagged (other, UniProt Q62431 1-601, looked up)
chain: T1 sequence (looked up) with Y330A
notes: as for B3
B5: mouse Bright W299A, C-terminal myc-his tagged (other, UniProt Q62431 1-601, looked up)
chain: T1 sequence (looked up) with W299A
notes: as for B3
B6: mouse Bright double point mutant (W299A and Y330A), C-terminal myc-his tagged (other, UniProt Q62431 1-601, looked up)
chain: T1 sequence (looked up) with W299A, Y330A
notes: range 1-601; also called DP; DP Bright; not shown: C-terminal myc-his tag from vector pcDNA4/TO/myc-His B
B7: mouse Bright F317A, C-terminal myc-his tagged (other, UniProt Q62431 1-601, looked up)
chain: T1 sequence (looked up) with F317A
notes: as for B3
B8: human Bright (B cell regulator of IgH transcription) (other)
chain: T2 sequence
notes: Transcription factor; Tested as in vitro translated protein from a full-length clone, and as endogenous protein in nuclear extracts of the human cell lines CL01, K562 and 300212; also called Dril 1; DRIL1

Data set [1] concerns the target T1, mouse Bright, native (untagged) wild-type (mouse). Briefly: cell-based or functional assay.
For data set [2], the target named is mouse Bright, wild-type, C-terminal myc-his tagged (mouse) (UniProt Q62431). The data set is described as follows: cell-based or functional assay.
In the next data set the target is T2, Bright (ARID3A/Dril1). The data set is described as follows: competition; nonspecific competitor, recombinant Bright. Conditions: tags: TNT rabbit reticulocyte lysate. The procedure:
(§1) Electrophoretic mobility shift assays (EMSAs). Nuclear extracts were prepared by hypotonic lysis, protein concentrations were quantified with Bradford reagents (BioRad, Richmond, Calif.), and EMSAs were performed in 4% nondenaturing acrylamide gels after incubation for 15 min at 37° C. with gamma-³²P-labeled probe, as previously described (Buchanan et al., 1995). The prototypic Bright binding site (a 150 base pair Bam HI-Fok I fragment called bf150) from the S107 V1 5′ flanking sequence (Webb et al., 1991) was used as a probe. In some instances, antibodies were added 5 min before incubation with the probe. […] A double-stranded oligo containing the 45 base pair foot-printed Bright binding site within bf150 described in Webb et al. (1991) was used as a specific competitor in increasing concentrations and a mutated version of that oligonucleotide containing the double-stranded sequence corresponding to 5′-[…]-3′ (SEQ ID NO:6) was used as a non-specific competitor. Underlined nucleotides represent changes from the prototype. Competition assays were performed as previously described (Webb et al., 1991).
To confirm that the protein complexes that reacted with anti-Bright antibodies in FIG. 2D were specific for the Bright binding site, competition experiments were performed in the presence of double-stranded oligonucleotides spanning the Bright binding motif.

Data set [3] deals with the molecule itself. Briefly: size exclusion chromatography of nuclear extracts, western blot of fractions. The procedure: (§2) FIGS. 11A-B—Tagged Bright proteins dimerize with native Bright. (FIG. 11A) Nuclear extracts from cells expressing Bright protein were subjected to size exclusion chromatography and protein fractions were analyzed for Bright by western blotting (lower panel). Data are presented graphically relative to molecular weight standards in the upper panel and are representative of four experiments. (FIG. 11B) C-terminal myc-his tagged Bright was either singly or coexpressed in CHO cells with native Bright. […] Immunoprecipitations using anti-myc Ab (middle panel) and anti-Sp1 as an isotype control (bottom panel) were performed with each of the transfected extracts and developed with anti-Bright reagents. Arrows indicate immunoglobulin heavy chain cross-reactive with the secondary reagent. Data are representative of two separate experiments.
Column chromatography. Nuclear extracts from CHO cells transfected with the full-length Bright expression plasmid (Herrscher et al., 1995) were centrifuged at 10,000×g to remove aggregates and applied to a pre-calibrated Bio-Gel A 0.5 m size exclusion column (Bio-Rad, Hercules, Calif.) in 0.05 M Tris-HCl, pH 8.0, 0.1 M KCl and 20% glycerol according to the manufacturer's directions. The column was calibrated before and after use with Bio-Rad gel filtration standards to ensure maintenance of column integrity. […]
In general terms: Size exclusion chromatography separates by hydrodynamic size, large species first.

Data set [4] deals with the molecule itself. The data set is described as follows: size exclusion chromatography (not shown).
The target of data set [5] is B2. The data set is described as follows: co-expression in CHO cells, anti-myc immunoprecipitation, anti-Bright blot. On the procedure:
as §2
To determine if the mutated proteins formed heterodimers with wild-type Bright, his-myc-tagged mutant forms of Bright were co-expressed in CHO cells with native wild-type Bright. Tagged proteins were distinguished from native Bright by the slight size differences in western blots (FIG. 11B) and were confirmed using anti-tag antibodies (not shown). Anti-myc antibodies were used to immunoprecipitate the tagged proteins and blots were developed with anti-Bright (FIG. 11B). In every case, a lower molecular weight band was detected that reflected the presence of native Bright.

The target of data set [6] is human Btk, endogenous in the B cell lines CL01 and 300212 (human, UniProt Q06187 2-659). Briefly: EMSA supershift with anti-Btk, nuclear extracts of CL01 and 300212 cells. The procedure:
FIG. 7—Btk associates with Bright in a subset of DNA-bound complexes. Mobility-shift assays were performed with nuclear extracts from two B cell lines (CL01 and 300212) and the T cell line, Molt-4. Anti-sera to CDP or the pleckstrin domain of Btk was added as in FIG. 2A-D. In some cases the anti-Btk sera was diluted 1:10 with PBS (0.1) prior to addition. Data are representative of six experiments.
as §1, with “Underlined nucleotides represent changes from the prototype. Competition assays were performed as previously described (Webb et al., 1991).” left out
(In general: Mobility shift assays separate free from complexed probe on a gel.)

human Btk, endogenous in the B cell lines CL01 and 300212, sequence (Q06187 2-659 limits assumed): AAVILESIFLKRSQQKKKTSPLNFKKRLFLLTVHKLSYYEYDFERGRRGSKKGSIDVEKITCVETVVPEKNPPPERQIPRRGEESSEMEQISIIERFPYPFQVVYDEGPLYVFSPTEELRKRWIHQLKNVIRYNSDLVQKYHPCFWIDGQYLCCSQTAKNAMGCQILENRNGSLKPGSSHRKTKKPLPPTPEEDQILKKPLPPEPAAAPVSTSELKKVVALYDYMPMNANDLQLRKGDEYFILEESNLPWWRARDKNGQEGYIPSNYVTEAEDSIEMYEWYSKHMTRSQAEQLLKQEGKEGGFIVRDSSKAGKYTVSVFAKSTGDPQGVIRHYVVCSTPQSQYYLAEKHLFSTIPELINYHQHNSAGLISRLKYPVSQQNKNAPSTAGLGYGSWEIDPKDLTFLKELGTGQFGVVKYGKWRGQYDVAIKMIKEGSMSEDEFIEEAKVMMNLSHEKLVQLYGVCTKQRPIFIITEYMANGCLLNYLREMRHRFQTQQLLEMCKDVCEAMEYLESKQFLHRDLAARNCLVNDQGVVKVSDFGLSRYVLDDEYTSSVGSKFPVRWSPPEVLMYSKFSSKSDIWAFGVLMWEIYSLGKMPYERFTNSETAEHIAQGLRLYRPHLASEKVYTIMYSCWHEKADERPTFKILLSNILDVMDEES

Consider “Bruton's tyrosine kinase (Btk), wild-type, ectopically expressed or recombinant (enzyme)”, for which the Bright DNA-binding activity remaining after competitor DNA (EMSA, in vitro translated Bright plus recombinant Btk) in data set [1] is less than 50 % reduction.
Btk xid mutant (R28C) (enzyme) registered a V1 transcription relative to wild-type Btk (Real Time PCR, CHO cells) in data set [2] of 50%.
On to B1, for which, in the data set with Bright (ARID3A/Dril1), the binding result was “no binding”.
As to B2, in data set [3], the binding result is listed as “binds”.
In the case of B3, the binding result in data set [4] and in data set [5] was “binds” each time.
With B4, the binding result in data set [5] is “binds”.
Turning to B5, the binding result in data set [5] is “binds”.
In the case of B6, in data set [5], the binding result is reported as “binds”.
For the molecule B7, the binding result in data set [5] is reported as “binds”.
Regarding B8, the binding result in data set [6] was “binds”.
